Assay results taken from article PMC9922296, “Mechanistic insights into RNA surveillance by the canonical poly(A) polymerase Pla1 of the MTREC complex” (Nature Communications, 2023).
Changes are numbered by the printed parent chain. Names may count otherwise. “And” between values parts separate entries of the source, which are not always exact repeats. Equal values may be shown once. Each block holds one molecule with its values, some of them ahead of it. No end group written: not given here.

Key:
[1] = biological target: C-terminal RRM domain of Pla1 (Pla1RRM, residues 352-566), purified (S. pombe) (UniProt Q10295); experiment: ITC; MicroCal PEAQ-ITC, 25 °C, 20 mM HEPES pH 7.5, 150 mM NaCl, 2 mM BME; 40-50 µM protein in the cell, 400-500 µM ligand in the syringe; one-binding site model
[2] = biological target: T1, Pla1RRM (C-terminal RRM domain of Pla1, residues 352-566) (S. pombe, UniProt Q10295 352-566); experiment: ITC; Red1 or Iss1 construct in the syringe (400-500 µM) titrated into Pla1RRM (wild type or mutant) in the cell (40-50 µM); 25 °C; 20 mM HEPES pH 7.5, 150 mM NaCl, 2 mM BME; one-binding site model; each independent measurement listed; conditions: both partners purified
T1 construct: Pla1, canonical poly(A) polymerase, S. pombe, C-terminal RRM domain, residues 352-566; also called Pla1 RRM domain; Pla1 CTD; source: E. coli BL21 (DE3) Rosetta2, purified (His-Trap, TEV cleavage, Resource Q, Superdex 200); not shown: His6, N-terminal, cleaved
T1 sequence (looked up): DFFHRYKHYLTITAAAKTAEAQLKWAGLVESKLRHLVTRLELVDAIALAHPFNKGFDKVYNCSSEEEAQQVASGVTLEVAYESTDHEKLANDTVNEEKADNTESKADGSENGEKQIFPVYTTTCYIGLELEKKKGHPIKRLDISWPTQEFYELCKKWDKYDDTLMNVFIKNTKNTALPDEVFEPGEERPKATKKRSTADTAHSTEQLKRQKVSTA

[3] = biological target: T2, C-terminal RRM domain of Pla1 (Pla1RRM, residues 352-566), purified (S. pombe, UniProt Q10295 352-566); experiment: ITC; MicroCal PEAQ-ITC, 25 °C, 20 mM HEPES pH 7.5, 150 mM NaCl, 2 mM BME; 40-50 µM protein in the cell, 400-500 µM ligand in the syringe; one-binding site model; conditions: both partners purified
T2 construct: canonical poly(A) polymerase Pla1, S. pombe, C-terminal RRM domain, residues 352-566; also called Pla1 CTD; source: E. coli BL21 (DE3) Rosetta2, purified (His-Trap, TEV cleavage, Resource Q, Superdex 200); not shown: His6, N-terminal, cleaved
T2 sequence (looked up): T1 sequence (looked up)

[4] = biological target: Biotinylated Iss1 residues 30-76 (S. pombe); experiment: BLI; Octet RED96e, 25 °C, 20 mM HEPES pH 7.5, 150 mM NaCl, 2 mM BME, 0.01% Tween-20; biotinylated Red1_(288-345) or Iss1_(30-76) on streptavidin biosensors, 2-fold serial dilution of Pla1FL; global 1:1 fit; apparent
[5] = biological target: T3, Pla1FL (full-length Pla1, residues 1-566) (S. pombe, UniProt Q10295 1-566); experiment: BLI; biotinylated Red1 288-345 or Iss1 30-76 immobilised on streptavidin biosensors, 2-fold serial dilution of Pla1FL as analyte; 25 °C; 20 mM HEPES pH 7.5, 150 mM NaCl, 2 mM BME, 0.01% Tween-20; global 1:1 fit; conditions: both partners purified
T3 construct: Pla1, canonical poly(A) polymerase, S. pombe, residues 1-566; the His6 tag is non-cleavable; source: E. coli BL21 (DE3) Rosetta2, purified (His-Trap, Resource Q, Superdex 200); not shown: His6, N-terminal, kept
T3 sequence (looked up): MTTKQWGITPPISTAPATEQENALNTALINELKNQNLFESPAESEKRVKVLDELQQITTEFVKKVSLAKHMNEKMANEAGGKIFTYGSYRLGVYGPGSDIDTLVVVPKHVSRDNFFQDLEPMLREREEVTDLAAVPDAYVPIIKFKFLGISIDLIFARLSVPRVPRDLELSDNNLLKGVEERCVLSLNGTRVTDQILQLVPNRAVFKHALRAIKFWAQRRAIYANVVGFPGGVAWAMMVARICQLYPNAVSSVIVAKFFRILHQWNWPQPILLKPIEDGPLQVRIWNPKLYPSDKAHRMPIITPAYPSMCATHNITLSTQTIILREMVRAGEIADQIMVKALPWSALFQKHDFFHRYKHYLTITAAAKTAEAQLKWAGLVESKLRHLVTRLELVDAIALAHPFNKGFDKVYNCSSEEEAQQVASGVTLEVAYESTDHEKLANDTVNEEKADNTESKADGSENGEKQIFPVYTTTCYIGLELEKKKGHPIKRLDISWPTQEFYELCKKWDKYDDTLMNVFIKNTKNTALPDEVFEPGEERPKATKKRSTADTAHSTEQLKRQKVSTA

[6] = biological target: T4, Red1 residues 288-345 with Val313 mutated to arginine (S. pombe, UniProt Q9UTR8 288-345, Val313 to an arginine residue); experiment: ITC
T4 sequence: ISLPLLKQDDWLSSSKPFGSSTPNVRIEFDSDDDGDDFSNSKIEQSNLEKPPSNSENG

[7] = biological target: T5, Full-length Pla1 (Pla1FL, residues 1-566) with non-cleavable N-terminal His6, purified (S. pombe, UniProt Q10295 1-566); experiment: BLI; Octet RED96e, 25 °C, 20 mM HEPES pH 7.5, 150 mM NaCl, 2 mM BME, 0.01% Tween-20; biotinylated Red1_(288-345) or Iss1_(30-76) on streptavidin biosensors, 2-fold serial dilution of Pla1FL; global 1:1 fit; apparent; conditions: both partners purified
T5 construct: canonical poly(A) polymerase Pla1, S. pombe, full length, residues 1-566; source: E. coli BL21 (DE3) Rosetta2, purified (His-Trap, Resource Q, Superdex 200); not shown: His6, N-terminal, kept
T5 sequence (looked up): T3 sequence (looked up)

[8] = biological target: T1, Pla1RRM (C-terminal RRM domain of Pla1, …); experiment: ITC; Red1 or Iss1 construct in the syringe (400-500 µM) titrated into Pla1RRM (wild type or mutant) in the cell (40-50 µM); 25 °C; 20 mM HEPES pH 7.5, 150 mM NaCl, 2 mM BME; one-binding site model; each independent measurement listed; conditions: both partners purified; remark: listed apart in the source

Kd [1]: 2500 nM
Molecule: Iss1 residues 30-76, purified (domain or fragment)

Kd [2]: 7300 nM and 8400 nM | stoichiometry N [2]: 1.31 and 1.3
B1: Red1 288-322 (domain or fragment, S. pombe)
chain: ISLPLLKQDDWLSSSKPFGSSTPNVVIEFDSDDDG
notes: source: E. coli BL21 (DE3), purified (His-Trap, TEV cleavage, second IMAC, Superdex 75); not shown: GB1, N-terminal, cleaved; His6, C-terminal, kept

Kd [3]: 7900 nM
B2: Red1 residues 288-322, purified (domain or fragment, S. pombe, UniProt Q9UTR8 288-322, looked up)
chain: B1 chain
notes: as for B1

Kd [4]: 115 nM | koff [4]: 0.024 s⁻¹ | kon [4]: 210000 M⁻¹ s⁻¹
B3: Full-length Pla1 (Pla1FL, residues 1-566) with non-cleavable N-terminal His6, purified (enzyme)
chain: T3 sequence (looked up)

koff [5]: 0.0242 s⁻¹
B4: biotinylated Iss1 30-76 (domain or fragment, S. pombe)
chain: VSNAKSPEQASEESDDSDIEFIIETKPGERAEPLGGSIATLGSTRPS
modifications: also: biotin (EZ-Link NHS-PEG4-Biotin), sites not given here
notes: Iss1, S. pombe, residues 30-76; same protein as Dm12, biotinylated for immobilisation on streptavidin biosensors; also called Iss1_(30-76), biotin-labelled; source: E. coli BL21 (DE3) Rosetta2, purified, biotinylated with EZ-Link NHS-PEG4-Biotin; not shown: His-Thioredoxin, N-terminal, cleaved

Kd [6]: 17900 nM
B5: C-terminal RRM domain of Pla1 (Pla1RRM, residues 352-566), purified (domain or fragment)
chain: T1 sequence (looked up)

fold loss in affinity against wild-type Red1_(288-345) [3]: ~13 fold
B6: Red1 residues 288-345 with Val313 mutated to arginine (domain or fragment, S. pombe, UniProt Q9UTR8 288-345, looked up)
chain: T4 sequence
notes: also called V313R; source: E. coli BL21 (DE3), purified; not shown: GB1, N-terminal, cleaved; His6, C-terminal, kept

koff [5]: 0.0163 s⁻¹ | kon [5]: 275000 M⁻¹ s⁻¹
B7: biotinylated Red1 288-345 (domain or fragment, S. pombe)
chain: T4 sequence with R26V
modifications: also: biotin (EZ-Link NHS-PEG4-Biotin), sites not given here
notes: same protein as Dm2, biotinylated for immobilisation on streptavidin biosensors; source: E. coli BL21 (DE3), purified, biotinylated with EZ-Link NHS-PEG4-Biotin; not shown: GB1, N-terminal, cleaved; His6, C-terminal, kept

Kd [7]: 59.2 nM | koff [7]: 0.016 s⁻¹ | kon [7]: 280000 M⁻¹ s⁻¹
B8: Biotinylated Red1 residues 288-345 (domain or fragment, S. pombe, UniProt Q9UTR8 288-345, looked up)
chain: T4 sequence with R26V
modifications: also: biotin (EZ-Link NHS-PEG4-Biotin), site not given here
notes: source: E. coli BL21 (DE3), purified, biotinylated; not shown: GB1, N-terminal, cleaved; His6, C-terminal, kept

Kd [2]: 15800 nM and 19900 nM | stoichiometry N [2]: 1.13 and 0.96
B9: Red1 288-345 V313R (domain or fragment, S. pombe, UniProt Q9UTR8 288-345, looked up)
chain: T4 sequence
notes: as for B1

Kd [8]: 1200 ± 300 nM | Kd [2]: 1010 nM and 1450 nM | stoichiometry N [2]: 1.04 and 1.05
B10: Red1 288-345 S308A (domain or fragment, S. pombe, UniProt Q9UTR8 288-345, looked up)
chain: T4 sequence with S21A, R26V
notes: also called Red1S308A; source: E. coli BL21 (DE3), purified (His-Trap, TEV cleavage, second IMAC, Superdex 75); not shown: GB1, N-terminal, cleaved; His6, C-terminal, kept

Kd [8]: 1100 ± 250 nM | Kd [2]: 770 nM and 1530 nM | stoichiometry N [2]: 0.99 and 1.05
B11: Red1 288-345 N311A (domain or fragment, S. pombe, UniProt Q9UTR8 288-345, looked up)
chain: T4 sequence with N24A, R26V
notes: also called Red1N311A; source: E. coli BL21 (DE3), purified (His-Trap, TEV cleavage, second IMAC, Superdex 75); not shown: GB1, N-terminal, cleaved; His6, C-terminal, kept
